# According to US20230242586A1 (University of California, published 2023):
# Bridge positions count the residues as written; N and C are the ends. Square brackets hold non-standard residues; d marks the D form.
# Target: T1, biotinylated K-Ras(G12D)·GppNHp (His-Avi-TEV-KRAS (G12D)) (human, biotin on the Avi tag (co-expressed BirA))
# T1 construct: Loaded with GppNHp; the protocol for the biotinylated proteins tells of no tag cleavage; Used in the TR-FRET assay
# Test: TR-FRET Ras-Raf interaction assay: biotinylated K-Ras(G12D)·GppNHp with GST-Raf1-RBD, peptide titrated (competition)
row,Binder,binding result
1,"{CH2CO}-[dY]IIVTEKFIWVHHCG-NH2 (thioether N-14, Chemically synthesized linker-free thioether macrocycle; in the mRNA display selection the same peptide stood as a peptide-mRNA/cDNA fusion) [KD1]",binds
2,"{CH2CO}-[dY]NYPYRPLELGWYCG-NH2 (thioether N-14, Chemically synthesized linker-free thioether macrocycle; in the mRNA display selection the same peptide stood as a peptide-mRNA/cDNA fusion) [KD17]",binds
